Numbering of substitutions follows the chain as printed. Values belong to the binder of their own block, whether it stands above or below them.
Assays:
[1] = target: T1, human TNFR2 on the surface of CHO-TNFR2 cells (human, UniProt P20333 23-461); experiment: flow cytometry on CHO-TNFR2 cells
T1 construct: whole, on cells
T1 sequence (looked up): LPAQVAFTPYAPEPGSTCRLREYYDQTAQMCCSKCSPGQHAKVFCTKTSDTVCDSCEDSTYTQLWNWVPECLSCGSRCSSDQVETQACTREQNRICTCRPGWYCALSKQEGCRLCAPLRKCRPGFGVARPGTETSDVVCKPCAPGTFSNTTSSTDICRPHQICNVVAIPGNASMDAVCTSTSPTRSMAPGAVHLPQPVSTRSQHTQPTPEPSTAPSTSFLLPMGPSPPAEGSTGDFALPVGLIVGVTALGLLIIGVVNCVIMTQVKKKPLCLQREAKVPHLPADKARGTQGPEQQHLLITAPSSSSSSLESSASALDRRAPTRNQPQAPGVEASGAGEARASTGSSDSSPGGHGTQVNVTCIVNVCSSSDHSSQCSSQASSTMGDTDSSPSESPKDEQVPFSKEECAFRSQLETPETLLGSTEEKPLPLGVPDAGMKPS
Protocol: (§1) The transfected full-length plasmid of human TNFR2 was purchased from Sino Biological (Cat #HG10417-UT, NCBI Ref Seq: NM_001066.2). The experiment was conducted at a cell density within 80%. The cell medium was discarded; the cells were rinsed with PBS, and digested with 1 ml trypsin for 2 minutes; the digestion was stopped with a Ham's F12 complete medium containing 10% FBS, and then a cell suspension was made. The cell suspension was counted, and then an appropriate amount of cell suspension was centrifuged at 350×g; the supernatant was discarded; a corresponding volume of blocking solution (10% FBS+PBS) at a density of 1×10⁷ cells/ml was added to resuspend the cells, and the mixture was incubated at 4° C. for 30 minutes. After the incubation, the mixture was centrifuged at 350×g to remove the supernatant, and the cells were resuspended in a staining buffer (2% FBS+PBS) to a density of 2×10⁶ cells/ml, and spread onto a 96-well plate, with 50 μl of cell suspension added to each well for later use. The antibody was diluted with PBS for 10-fold gradient dilution from the highest concentration of 20 μg/m (twice the concentration); the diluted antibody was added to the well containing 50 μl of cell suspension, and placed on a microplate shaker for shaking at 500 rpm for 1 minute, so that the antibody was fully mixed with the cells; the mixture was incubated at 4° C. for 1 h. After the incubation, the cells were washed twice with the staining buffer, with 100 μl per well, and centrifuged at 350-g for 5 minutes, and the supernatant was discarded. The PE goat anti-Human IgG Fc antibody (ebioscience, Cat #12-4998-82) was diluted 250-fold with the staining buffer, with a volume of 100 μl per well added to the washed cell wells; the mixture was mixed evenly, and stained at 4° C. for 30 minutes. After the staining, similarly, the cells were washed twice with the staining buffer; finally, the cells were resuspended in 200 μl of staining buffer; signals were detected by a flow cytometer (Thermo Attune NxT). The stronger the signal, the stronger the binding ability of an antibody to TNFR2. The binding curve of an antibody was drawn with antibody concentration as the abscissa and corresponding mean fluorescence intensity (MFI) fold as the ordinate, and fitted with four parameters (GraphPad Prism9) to calculate the EC50 value.

[2] = target: T2, human TNFR2 (Novoprotein, Cat #C830) (human, UniProt P20333 23-257, limits assumed); experiment: competition ELISA, competitor human TNFα-Biotin; AUC against 224-WT
T2 construct: construct not described; also called human TNFR2 protein
T2 sequence (looked up): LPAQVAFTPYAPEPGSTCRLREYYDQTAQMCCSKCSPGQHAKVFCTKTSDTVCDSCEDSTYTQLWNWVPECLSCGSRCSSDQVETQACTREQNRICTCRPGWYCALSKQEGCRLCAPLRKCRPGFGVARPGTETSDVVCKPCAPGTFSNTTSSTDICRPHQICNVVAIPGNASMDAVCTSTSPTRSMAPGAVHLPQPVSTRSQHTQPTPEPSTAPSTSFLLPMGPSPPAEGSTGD
Protocol: (§2) 1 μg/ml human TNFR2 (Novoprotein, Cat #C830) was pre-coated with 100 μl/well […] in an ELISA plate. All the test TNFR2 antibodies were subjected to 2.5-fold gradient dilution from the highest concentration of 30 μg/ml; the diluted antibodies were mixed with 15 ng/ml human TNFα-Biotin (Acro Biosystem, Cat #TNA-H82E3) in equal volume, respectively; the resulting mixture was added to the ELISA plate at 100 μl/well, and incubated with shaking at room temperature for 2.0 hours. The plate was washed, and then a Streptavidin-HRP working solution (diluted at 1:10000) was added at 100 μl/well, and the mixture was incubated with shaking at room temperature for 40 minutes. The plate was washed again, and then the substrate TMB of HRP was added to develop colour. A stop solution was added to stop the reaction, and then a microplate reader (MD 13) was used to read the absorbance value. The inhibitory curve of an antibody was drawn with antibody concentration as the abscissa and corresponding OD value as the ordinate, and fitted with four parameters (GraphPad Prism9) to calculate the IC50 value. The smaller the IC50 value, the stronger the ability of an antibody to inhibit the binding of human TNFα to human TNFR2. The blocking effect of a humanized antibody was normalized to its corresponding human-murine chimeric antibody WT. The higher the percentage value, the better the inhibitory effect of the humanized antibody.

[3] = target: T2, human TNFR2 (Novoprotein, Cat #C830); experiment: competition ELISA, competitor human TNFα-Biotin; area under the OD curve
Protocol: as §2

[4] = target: T1, human TNFR2 on the surface of CHO-TNFR2 …; experiment: flow cytometry on CHO-TNFR2 cells; area under the MFI fold curve
Protocol: as §1

B1: 224-Hu1 (antibody, V domains shown)
VH: QVQLVQSGAEVKKPGASVKVSCKASGFNNKDIYMHWVRQAPGQGLEWIGRIDPATGNTKHDPKFQDRVTMTSDTSTNTVYMELSSLRSEDTAVYYCARSPYGDFGAMDYWGQGTLVTVSS
VL: DIQMTQSPSSLSASVGDRVTITCTASSSVSSNYLHWYQQKPGKAPKLWIYSTSNLPSGVPSRFSGSGSGTDFTLTISSLQPEDFATYYCHQYHRSPWTFGQGTKVEIK
notes: Humanized form of #224; also called VH8 + VL6
EC50 [1]: 0.04 ng/mL
% Relative activity (WT antibody/test antibody) [2]: 98.8%
AUC [3]: 7.12
AUC [4]: 642

B2: 224-Hu7 (antibody, V domains shown)
VH: QVQLVQSGSELKKPGASVKVSCKASGFNNKDIYMHWVRQAPGQGLEWMGRIDPATGNTKHDPKFQDKAVLSSDTSVSTAYLQISSLKAEDTAVYYCARSPYGDFGAMDYWGQGTLVTVSS
VL: B1 VL with W48L
notes: Humanized form of #224; also called VH9 + VL10
EC50 [1]: 0.03 ng/mL
% Relative activity (WT antibody/test antibody) [2]: 100%
AUC [3]: 7.44
AUC [4]: 608

B4: 224-Hu2 (antibody, V domains shown)
VH: B2 VH
VL: B1 VL with K43S, A44S
notes: Humanized form of #224; also called VH9 + VL7
EC50 [1]: 0.03 ng/mL
% Relative activity (WT antibody/test antibody) [2]: 102%
AUC [3]: 7.18
AUC [4]: 672

B8: 219-Hu5 (antibody, V domains shown)
VH: QVQLVQSGAEVKKPGSSVKVSCKASGYSFTNYWMNWVRQAPGQGLEWMGMIHPSDTETRLNQNFKDRVTITVDKSTSTAYMELSSLRSEDTAVYYCARGEGLGAARSVSMDYWGQGTLVTVSS
VL: DIQMTQSPSSLSASVGDRVTITCRASQDISNYLNWYQQKPDGTVKLLIYYTAILHSGVPSRFSGSGSGTDYSLTISSLQPEDFATYFCQQGNTLPWTFGQGTKVEIK
notes: also called VH7 + VL5
EC50 [1]: 0.018 ng/mL
AUC [3]: 7.96
AUC [4]: 481

The remaining lines, values ahead:

EC50 [1]: 0.04 ng/mL
% Relative activity (WT antibody/test antibody) [2]: 97.2%
AUC [3]: 6.87
AUC [4]: 593
B3: 224-Hu5 (antibody, V domains shown)
VH: B2 VH
VL: B1 VL with W48L, F72Y, T73S
notes: Humanized form of #224; also called VH9 + VL9

EC50 [1]: 0.03 ng/mL
% Relative activity (WT antibody/test antibody) [2]: 100%
AUC [3]: 6.46
AUC [4]: 603
B5: 224-Hu6 (antibody, V domains shown)
VH: B1 VH
VL: B1 VL with K43S, A44S
notes: Humanized form of #224; also called VH8 + VL7

EC50 [1]: 0.03 ng/mL
% Relative activity (WT antibody/test antibody) [2]: 98.2%
AUC [3]: 6.34
AUC [4]: 675
B6: 224-Hu3 (antibody, V domains shown)
VH: B2 VH
VL: B1 VL with W48L, P81A, F84A
notes: Humanized form of #224; also called VH9 + VL8

EC50 [1]: 0.03 ng/mL
% Relative activity (WT antibody/test antibody) [2]: 100%
AUC [3]: 6.25
AUC [4]: 621
B7: 224-Hu4 (antibody, V domains shown)
VH: B2 VH
VL: B1 VL
notes: Humanized form of #224; also called VH9 + VL6
